According to the supplement of paper PMC5998384:

What was measured:
[1] = system: HeLa Kyoto; assay: solubility in G1/S (NP-40 vs SDS abundance) (log2 ratio); higher = more soluble; details: cell cycle stage: G1/S
[2] = system: HeLa Kyoto; assay: thermal stability score vs G1/S (z-score of summed log2 fold changes over temperatures); higher = more thermally stable than in G1/S
[3] = system: HeLa Kyoto; assay: solubility change mitosis vs G1/S (difference of NP-40 vs SDS log2 ratios) (log2 ratio difference); higher = more soluble in mitosis
[4] = system: HeLa Kyoto; assay: melting temperature (median over replicates), in situ; higher = more thermally stable
[5] = cell cycle stage: early G1 (4.5 h after nocodazole release)
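For melting temperature (median over replicates), in situ in this document: HeLa Kyoto cells synchronized by double thymidine or nocodazole block, proteins quantified by TMT10plex mass spectrometry, three independent biological replicates.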
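For solubility change mitosis vs G1/S (difference of NP-40 vs SDS log2 ratios) in this document: synchronized HeLa Kyoto cells (double thymidine block for G1/S, nocodazole release for mitosis), protein amounts in NP-40 versus SDS lysates quantified by mass spectrometry, three biological replicates.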
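For solubility in G1/S (NP-40 vs SDS abundance) in this document: HeLa Kyoto cells arrested at G1/S by double thymidine block, proteins quantified by TMT10plex mass spectrometry in mild NP-40 versus SDS extracts, three biological replicates.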
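For thermal stability score vs G1/S (z-score of summed log2 fold changes over temperatures) in this document: synchronized HeLa Kyoto cells, proteins quantified by TMT10plex mass spectrometry, three biological replicates, mitosis taken 0.5 h after nocodazole release, G1/S directly after double thymidine block.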

Sequence | solubility in G1/S (log2) [1] | thermal stability score [2, 5] | thermal stability score ([2]; cell cycle stage: mitosis) | solubility change mitosis (log2) [3] | melting temperature ([4]; cell cycle stage: G1/S) [°C] | melting temperature ([4]; cell cycle stage: mitosis) [°C]
MAARVLIIGSGGREHTLAWKLAQSHHVKQVLVAPGNAGTACSEKISNTAISISDHTALAQFCKEKKIEFVVVGPEAPLAAGIVGNLRSAGVQCFGPTAEAAQLESSKRFAKEFMDRHGIPTAQWKAFTKPEEACSFILSADFPALVVKASGLAAGKGVIVAKSKEEACKAVQEIMQEKAFGAAGETIVIEELLDGEEVSCLCFTDGKTVAPMPPAQDHKRLLEGDGGPNTGGMGAYCPAPQVSNDLLLKIKDTVLQRTVDGMQQEGTPYTGILYAGIMLTKNGPKVLEFNCRFGDPECQVILPLLKSDLYEVIQSTLDGLLCTSLPVWLENHTALTVVMASKGYPGDYTKGVEITGFPEAQALGLEVFHAGTALKNGKVVTHGGRVLAVTAIRENLISALEEAKKGLAAIKFEGAIYRKDVGFRAIAFLQQPRSLTYKESGVDIAAGNMLVKKIQPLAKATSRSGCKVDLGGFAGLFDLKAAGFKDPLLASGTDGVGTKLKIAQLCNKHDTIGQDLVAMCVNDILAQGAEPLFFLDYFSCGKLDLSVTEAVVAGIAKACGKAGCALLGGETAEMPDMYPPGEYDLAGFAVGAMERDQKLPHLERITEGDVVVGIASSGLHSNGFSLVRKIVAKSSLQYSSPAPDGCGDQTLGDLLLTPTRIYSHSLLPVLRSGHVKAFAHITGGGLLENIPRVLPEKLGVDLDAQTWRIPRVFSWLQQEGHLSEEEMARTFNCGVGAVLVVSKEQTEQILRDIQQHKEEAWVIGSVVARAEGSPRVKVKNLIESMQINGSVLKNGSLTNHFSFEKKKARVAVLISGTGSNLQALIDSTREPNSSAQIDIVISNKAAVAGLDKAERAGIPTRVINHKLYKNRVEFDSAIDLVLEEFSIDIVCLAGFMRILSGPFVQKWNGKMLNIHPSLLPSFKGSNAHEQALETGVTVTGCTVHFVAEDVDAGQIILQEAVPVKRGDTVATLSERVKLAEHKIFPAALQLVASGTVQLGENGKICWVKEE [GART] | 0.201 | 0.0198 | 0.936 | -0.137 | 50.8 | 51
MAASAAAASAAAASAASGSPGPGEGSAGGEKRSTAPSAAASASASAAASSPAGGGAEALELLEHCGVCRERLRPEREPRLLPCLHSACSACLGPAAPAAANSSGDGGAAGDGTVVDCPVCKQQCFSKDIVENYFMRDSGSKAATDAQDANQCCTSCEDNAPATSYCVECSEPLCETCVEAHQRVKYTKDHTVRSTGPAKSRDGERTVYCNVHKHEPLVLFCESCDTLTCRDCQLNAHKDHQYQFLEDAVRNQRKLLASLVKRLGDKHATLQKSTKEVRSSIRQVSDVQKRVQVDVKMAILQIMKELNKRGRVLVNDAQKVTEGQQERLERQHWTMTKIQKHQEHILRFASWALESDNNTALLLSKKLIYFQLHRALKMIVDPVEPHGEMKFQWDLNAWTKSAEAFGKIVAERPGTNSTGPAPMAPPRAPGPLSKQGSGSSQPMEVQEGYGFGSGDDPYSSAEPHVSGVKRSRSGEGEVSGLMRKVPRVSLERLDLDLTADSQPPVFKVFPGSTTEDYNLIVIERGAAAAATGQPGTAPAGTPGAPPLAGMAIVKEEETEAAIGAPPTATEGPETKPVLMALAEGPGAEGPRLASPSGSTSSGLEVVAPEGTSAPGGGPGTLDDSATICRVCQKPGDLVMCNQCEFCFHLDCHLPALQDVPGEEWSCSLCHVLPDLKEEDGSLSLDGADSTGVVAKLSPANQRKCERVLLALFCHEPCRPLHQLATDSTFSLDQPGGTLDLTLIRARLQEKLSPPYSSPQEFAQDVGRMFKQFNKLTEDKADVQSIIGLQRFFETRMNEAFGDTKFSAVLVEPPPMSLPGAGLSSQELSGGPGDGP [TRIM28] | 0.119 | 1.33 | 6.59 | -0.0696 | 48.2 | 49.2
MAASAGAGAVIAAPDSRRWLWSVLAAALGLLTAGVSALEVYTPKEIFVANGTQGKLTCKFKSTSTTGGLTSVSWSFQPEGADTTVSFFHYSQGQVYLGNYPPFKDRISWAGDLDKKDASINIENMQFIHNGTYICDVKNPPDIVVQPGHIRLYVVEKENLPVFPVWVVVGIVTAVVLGLTLLISMILAVLYRRKNSKRDYTGCSTSESLSPVKQAPRKSPSDTEGLVKSLPSGSHQGPVIYAQLDHSGGHHSDKINKSESVVYADIRKN [MPZL1] | 0.534 | -1.73 | -3.55 | -0.289 | 57.8 | 58.1
MAASAKRKQEEKHLKMLRDMTGLPHNRKCFDCDQRGPTYVNMTVGSFVCTSCSGSLRGLNPPHRVKSISMTTFTQQEIEFLQKHGNEVCKQIWLGLFDDRSSAIPDFRDPQKVKEFLQEKYEKKRWYVPPEQAKVVASVHASISGSSASSTSSTPEVKPLKSLLGDSAPTLHLNKGTPSQSPVVGRSQGQQQEKKQFDLLSDLGSDIFAAPAPQSTATANFANFAHFNSHAAQNSANADFANFDAFGQSSGSSNFGGFPTASHSPFQPQTTGGSAASVNANFAHFDNFPKSSSADFGTFNTSQSHQTASAVSKVSTNKAGLQTADKYAALANLDNIFSAGQGGDQGSGFGTTGKAPVGSVVSVPSQSSASSDKYAALAELDSVFSSAATSSNAYTSTSNASSNVFGTVPVVASAQTQPASSSVPAPFGATPSTNPFVAAAGPSVASSTNPFQTNARGATAATFGTASMSMPTGFGTPAPYSLPTSFSGSFQQPAFPAQAAFPQQTAFSQQPNGAGFAAFGQTKPVVTPFGQVAAAGVSSNPFMTGAPTGQFPTGSSSTNPFL [AGFG1] | 0.0305 | 0.14 | -0.191 | -0.0484 | 50.9 | 52.1
MAASCLVLLALCLLLPLLLLGGWKRWRRGRAARHVVAVVLGDVGRSPRMQYHALSLAMHGFSVTLLGFCNSKPHDELLQNNRIQIVGLTELQSLAVGPRVFQYGVKVVLQAMYLLWKLMWREPGAYIFLQNPPGLPSIAVCWFVGCLCGSKLVIDWHNYGYSIMGLVHGPNHPLVLLAKWYEKFFGRLSHLNLCVTNAMREDLADNWHIRAVTVYDKPASFFKETPLDLQHRLFMKLGSMHSPFRARSEPEDPVTERSAFTERDAGSGLVTRLRERPALLVSSTSWTEDEDFSILLAALEKFEQLTLDGHNLPSLVCVITGKGPLREYYSRLIHQKHFQHIQVCTPWLEAEDYPLLLGSADLGVCLHTSSSGLDLPMKVVDMFGCCLPVCAVNFKCLHELVKHEENGLVFEDSEELAAQLQMLFSNFPDPAGKLNQFRKNLRESQQLRWDESWVQTVLPLVMDT [ALG1] | -0.369 | 0.156 | -0.276 | -0.125 | 52.4 | 52.6
MAASGESGTSGGGGSTEEAFMTFYSEVKQIEKRDSVLTSKNQIERLTRPGSSYFNLNPFEVLQIDPEVTDEEIKKRFRQLSILVHPDKNQDDADRAQKAFEAVDKAYKLLLDQEQKKRALDVIQAGKEYVEHTVKERKKQLKKEGKPTIVEEDDPELFKQAVYKQTMKLFAELEIKRKEREAKEMHERKRQREEEIEAQEKAKREREWQKNFEESRDGRVDSWRNFQANTKGKKEKKNRTFLRPPKVKMEQRE [DNAJC8] | 0.748 | 1.39 | 0.712 | 0.145 | 50.1 | 51.5
MAASLRLLGAASGLRYWSRRLRPAAGSFAAVCSRSVASKTPVGFIGLGNMGNPMAKNLMKHGYPLIIYDVFPDACKEFQDAGEQVVSSPADVAEKADRIITMLPTSINAIEAYSGANGILKKVKKGSLLIDSSTIDPAVSKELAKEVEKMGAVFMDAPVSGGVGAARSGNLTFMVGGVEDEFAAAQELLGCMGSNVVYCGAVGTGQAAKICNNMLLAISMIGTAEAMNLGIRLGLDPKLLAKILNMSSGRCWSSDTYNPVPGVMDGVPSANNYQGGFGTTLMAKDLGLAQDSATSTKSPILLGSLAHQIYRMMCAKGYSKKDFSSVFQFLREEETF [HIBADH] | 0.469 | 0.844 | -0.199 | -0.0734 | 55.4 | 56.9
MAASPGPAGVGGAGAVYGSGSSGFALDSGLEIKTRSVEQTLLPLVSQITTLINHKDNTKKSDKTLQAIQRVGQAVNLAVGRFVKVGEAIANENWDLKEEINIACIEAKQAGETIAALTDITNLNHLESDGQITIFTDKTGVIKAARLLLSSVTKVLLLADRVVIKQIITSRNKVLATMERLEKVNSFQEFVQIFSQFGNEMVEFAHLSGDRQNDLKDEKKKAKMAAARAVLEKCTMMLLTASKTCLRHPNCESAHKNKEGVFDRMKVALDKVIEIVTDCKPNGETDISSISIFTGIKEFKMNIEALRENLYFQSKENLSVTLEVILERMEDFTDSAYTSHEHRERILELSTQARMELQQLISVWIQAQSKKTKSIAEELELSILKISHSLNELKKELHSTATQLAADLLKYHADHVVLKALKLTGVEGNLEALAEYACKLSEQKEQLVETCRLLRHISGTEPLEITCIHAEETFQVTGQQIISAAETLTLHPSSKIAKENLDVFCEAWESQISDMSTLLREINDVFEGRRGEKYGYLSLPKPMKNNANLKSLKPDKPDSEEQAKIAKLGLKLGLLTSDADCEIEKWEDQENEIVQYGRNMSSMAYSLYLFTRGEGPLKTSQDLIHQLEVFAAEGLKLTSSVQAFSKQLKDDDKLMLLLEINKLIPLCHQLQTVTKTSLQNKVFLKVDKCITKTRSMMALLVQLLSLCYKLLKKLQMENNGWVSVTNKDTMDSKT [CTNNAL1] | 0.208 | 0.258 | 1.63 | -0.111 | 47.7 | 48.9
MAASSISSPWGKHVFKAILMVLVALILLHSALAQSRRDFAPPGQQKREAPVDVLTQIGRSVRGTLDAWIGPETMHLVSESSSQVLWAISSAISVAFFALSGIAAQLLNALGLAGDYLAQGLKLSPGQVQTFLLWGAGALVVYWLLSLLLGLVLALLGRILWGLKLVIFLAGFVALMRSVPDPSTRALLLLALLILYALLSRLTGSRASGAQLEAKVRGLERQVEELRWRQRRAAKGARSVEEE [TMEM109] | -0.0444 | -3.9 | -4.03 | -0.14 | 54.6 | 53.8
MAASTGYVRLWGAARCWVLRRPMLAAAGGRVPTAAGAWLLRGQRTCDASPPWALWGRGPAIGGQWRGFWEASSRGGGAFSGGEDASEGGAEEGAGGAGGSAGAGEGPVITALTPMTIPDVFPHLPLIAITRNPVFPRFIKIIEVKNKKLVELLRRKVRLAQPYVGVFLKRDDSNESDVVESLDEIYHTGTFAQIHEMQDLGDKLRMIVMGHRRVHISRQLEVEPEEPEAENKHKPRRKSKRGKKEAEDELSARHPAELAMEPTPELPAEVLMVEVENVVHEDFQVTEEVKALTAEIVKTIRDIIALNPLYRESVLQMMQAGQRVVDNPIYLSDMGAALTGAESHELQDVLEETNIPKRLYKALSLLKKEFELSKLQQRLGREVEEKIKQTHRKYLLQEQLKIIKKELGLEKDDKDAIEEKFRERLKELVVPKHVMDVVDEELSKLGLLDNHSSEFNVTRNYLDWLTSIPWGKYSNENLDLARAQAVLEEDHYGMEDVKKRILEFIAVSQLRGSTQGKILCFYGPPGVGKTSIARSIARALNREYFRFSVGGMTDVAEIKGHRRTYVGAMPGKIIQCLKKTKTENPLILIDEVDKIGRGYQGDPSSALLELLDPEQNANFLDHYLDVPVDLSKVLFICTANVTDTIPEPLRDRMEMINVSGYVAQEKLAIAERYLVPQARALCGLDESKAKLSSDVLTLLIKQYCRESGVRNLQKQVEKVLRKSAYKIVSGEAESVEVTPENLQDFVGKPVFTVERMYDVTPPGVVMGLAWTAMGGSTLFVETSLRRPQDKDAKGDKDGSLEVTGQLGEVMKESARIAYTFARAFLMQHAPANDYLVTSHIHLHVPEGATPKDGPSAGCTIVTALLSLAMGRPVRQNLAMTGEVSLTGKILPVGGIKEKTIAAKRAGVTCIVLPAENKKDFYDLAAFITEGLEVHFVEHYREIFDIAFPDEQAEALAVER [LONP1] | 0.12 | -0.58 | -1.35 | -0.0806 | 54.4 | 53.6
